Source: US20160304580A1 (ALLIGATOR BIOSCIENCE, published 2016)
Substitutions are numbered along the chain they refer to.

Key:
[1] = target: T1, human CTLA4-Fc (Fitzgerald #30R-CD152) (human, UniProt P16410 38-152, biotinylated in the inhibition ELISAs (sites not given)); assay: SPR (Biacore); ratio [Kd for CD28] / [Kd for CTLA-4] compared with wild type
T1 construct: Bought reagent; Used plain (coated or immobilised) and biotinylated (in solution); also called biotinylated-CTLA4; human CTLA-4 (Fitzgerald); not shown: Fc of the bought fusion protein
T1 sequence: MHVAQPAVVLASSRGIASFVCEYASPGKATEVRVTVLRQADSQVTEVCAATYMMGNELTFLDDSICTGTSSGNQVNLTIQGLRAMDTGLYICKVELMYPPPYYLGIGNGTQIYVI
Protocol: (§1) The phage clones selected from Example 1 were re-cloned according to standard protocols into a fusion protein-format, with each clone fused to γ2/γ4 Fc. The fusion proteins were expressed in HEK293 cells. Supernatants culure of the cells were collected and the expressed fusion proteins were assayed using both ELISA and Biacore™ according to the methods set out below.
Either CTLA4-Fc (Fitzgerald #30R-CD152) or CD28-Fc (R&D systems 342-CD) was immobilized to the Biacore™ senshorship, CM5, using conventional amine coupling. The CD86 mutant molecules and controls (serially diluted ½ 100-1.5 nM) were analyzed for binding in HBs-P (GE, BR-1003-69) at a flow rate […]. The association was followed for 3 minutes and the dissociation for 10 minutes. Regeneration was performed twice using 5 mM NaOH for 30 seconds. The kinetic parameters and the affinity constants were calculated using BIAevaluation 4.1 software.

[2] = target: T1, human CTLA4-Fc (Fitzgerald #30R-CD152); assay: ELISA; ratio [EC50 for CD28] / [EC50 for CTLA-4] compared with wild type
Protocol: as §1
(§2) 96-well flat bottom high binding plates (Greiner #655074) were coated with either CTLA4-Fc (Fitzgerald #30R-CD152) or CD28-Fc (R&D systems 342-CD) by incubating overnight at 4° C. The plates were washed (Wash buffer: PBS+0.05% Tween 20 (PBST) Medicago #09-9410-100) and then blocked in PBST+3% BSA (Merck, #1.12018.0100). The plates were washed again and sample or controls (serially diluted ⅕ from 200-0.001 μg/ml) were added to the wells. The samples were incubated for 1 h at room temperature and then washed. Detection antibody, goat-anti-human IgG Fcγ-HRP (Jackson, #109-035-098) was added and the plates were subsequently developed using SuperSignal Pico Chemiluminescent substrate (Thermo #37069) and detected with an Envision reader (Perkin Elmer). EC50 values were calculated for both CTLA4 and CD28. The binding ratio (EC50 binding ratio=[EC50 for CD28]÷[EC50 for CTLA-4]) was calculated for each polypeptide and is shown in Table 4.

[3] = target: T1, human CTLA4-Fc (Fitzgerald #30R-CD152); assay: binding ELISA on coated CTLA4-Fc; against wild type and H79A; upper end tied to 1040 by Table 7
Protocol: as §2, with “Similar to the protocol described in Example 2, 96-well” for “96-well”, “(kindly provided by Simon Davis, Oxford University)” for “(R&D systems 342-CD)”, “⅓” for “⅕”, “50 000-0001 nM)” for “200-0.001 μg/ml)”, “Elmer).” for “Elmer). EC50 values were calculated for both CTLA4 and CD28. The binding ratio (EC50 binding ratio=[EC50 for CD28]÷[EC50 for CTLA-4]) was calculated for each polypeptide and is shown in Table 4.”
(§3) Binding to CD28 was too low for detection by this assay (data not shown).

[4] = target: T1, human CTLA4-Fc (Fitzgerald #30R-CD152); assay: binding ELISA: CTLA4-Fc coated on the plate, sample serially diluted, detection with goat anti-human IgG Fcγ-HRP, chemiluminescence, data normalised to %
Protocol: as §2, with “Similar to the protocol described in Example 2, 96-well” for “96-well”, “(kindly provided by Simon Davis, Oxford University)” for “(R&D systems 342-CD)”, “⅓” for “⅕”, “50 000-0001 nM)” for “200-0.001 μg/ml)”, “Elmer).” for “Elmer). EC50 values were calculated for both CTLA4 and CD28. The binding ratio (EC50 binding ratio=[EC50 for CD28]÷[EC50 for CTLA-4]) was calculated for each polypeptide and is shown in Table 4.”
as §3

[5] = target: T1, human CTLA4-Fc (Fitzgerald #30R-CD152); assay: binding ELISA on coated CTLA4-Fc; against wild type and H79A; lower end tied to 1042 by Table 7
Protocol: as §2, with “Similar to the protocol described in Example 2, 96-well” for “96-well”, “(kindly provided by Simon Davis, Oxford University)” for “(R&D systems 342-CD)”, “⅓” for “⅕”, “50 000-0001 nM)” for “200-0.001 μg/ml)”, “Elmer).” for “Elmer). EC50 values were calculated for both CTLA4 and CD28. The binding ratio (EC50 binding ratio=[EC50 for CD28]÷[EC50 for CTLA-4]) was calculated for each polypeptide and is shown in Table 4.”
as §3

B1: CD86 mutant clone 904 fused to γ2/γ4 Fc (Fc fusion)
chain: LKIQAYFNETADLPCQFANSQNQSLSELIVFWQDQENLVLNEVYLGKERFDAVDSKYMGRTSFDSDSWTLRLHNLQIKDKGIYQCIIHHKKPSGMVKIHQMDSELSVLA
notes: not shown: γ2/γ4 Fc
[1]
  fold of Kd binding ratio over wild type CD86: > 4 times

B2: CD86 mutant clone 907 fused to γ2/γ4 Fc (Fc fusion)
chain: B1 chain with I29V, R49K, A52S, D54H, I82L, S93T, V96I, Q100E, D102N
notes: not shown: γ2/γ4 Fc
[2]
  fold of EC50 binding ratio over wild-type CD86: ~10 times

B3: CD86 mutant clone 1040 expressed as a gamma2/gamma4 fusion (Fc fusion)
chain: APLKIQAYFNETADLPCQFANSQNLSLSELVVFWQDQENLVLNEVYLGKERFDSVDSKYMGRTSFDSDSWTLRLHNLQIKDKGRYQCIIHHKKPTGMINIHQMNSELSVLA
notes: Purified on protein A; not shown: gamma2/gamma4 Fc
[3]
  fold improvement of EC50: 2 to 67 fold
[4]
  EC50 (read off the curve): ~8 ng/mL

B4: CD86 mutant clone 1042 expressed as a gamma2/gamma4 fusion (Fc fusion)
chain: B3 chain with R51I, D56S, R84I, T95S, I98V, N99K, N104D
notes: as for B3
[5]
  fold improvement of EC50: 2 to 67 fold
